From paper PMC6128732

Molecular target: Biotinylated Xenopus laevis XRCC4-Avitag (Xenopus laevis)
Assay: BLI

Q: For “Xenopus laevis XLF^1-226 (C-terminally truncated XLF) (from UniProt A0A1L8ENT6 1-226) (domain or fragment)”, which Kd is on record?
A: The Kd was 280 nM.
